Target: T1, StrepHP1021 (HP1021) (Helicobacter pylori 26695) (UniProt O25665)
T1 sequence: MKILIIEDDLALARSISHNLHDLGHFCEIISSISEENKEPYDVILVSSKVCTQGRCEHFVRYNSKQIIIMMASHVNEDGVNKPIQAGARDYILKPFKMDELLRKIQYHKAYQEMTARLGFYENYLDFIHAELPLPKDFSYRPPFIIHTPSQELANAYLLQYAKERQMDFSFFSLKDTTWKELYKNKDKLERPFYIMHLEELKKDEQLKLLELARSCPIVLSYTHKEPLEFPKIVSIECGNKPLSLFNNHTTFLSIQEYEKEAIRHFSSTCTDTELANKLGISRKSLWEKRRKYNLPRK
Assay: EMSA
Conditions: EMSA: 50 mM Tris-HCl pH 8.0, 100 mM NaCl, 0.2% Triton X-100, 5 nM DNA, 37 C 20 min; 4% PAGE in 0.5x TBE or TB at 20-25 C. SPR: 50 mM Tris-HCl pH 8.0, 100 mM …

| Sequence | binding |
| --- | --- |
| ATGATATTTATATGATATTTTTGGGTAATTTAAGATGAATATCGGTAGCGTTTTGAATAAATTTGTTACTACTTTTCACTTTATTACGCCAAATTTTCCCTTATTACAAACAACTTTGAAATAAATGATTTCCATTTAAAAATCAGCCTTATACTTCTAATAGGTTGCCTTGAGCAACACTTTAATACAAGGAGTCTAAATGAAAGACGCAAATTCGAAGCTATTCTTACTCC (double strand) [phyuA] | binds |
| GGAGTAAGAATAGCTTCGAATCTCTATTTTGAAAACCCCTATTTCAGGCTTTTGAGTTTTTTAGGCTCTAGTTTTATCCACCCCTTTGGATTTGATTGGTTAGTCCCAGATAGCTTTTTTTCTTATAGCGTGTTTAGAGTGGATAAATTATCGCTAGGGCTTGTTTTTTTGGCTTGCATTTTTTTGAGCACTAAACCATTGAAAAAATATAG (double strand) [FAM-HP0180 fragment] | binds more weakly |

— article PMC8266642
